Measurements published in patent US20110223176A1 (AbbVie / Abbott, published 2011).

Legend:
[1] = target: T1, human BSG2 (basigin isoform 2) on the cell surface (human, UniProt P35613 140-385); assay: cell-based or functional assay
T1 sequence: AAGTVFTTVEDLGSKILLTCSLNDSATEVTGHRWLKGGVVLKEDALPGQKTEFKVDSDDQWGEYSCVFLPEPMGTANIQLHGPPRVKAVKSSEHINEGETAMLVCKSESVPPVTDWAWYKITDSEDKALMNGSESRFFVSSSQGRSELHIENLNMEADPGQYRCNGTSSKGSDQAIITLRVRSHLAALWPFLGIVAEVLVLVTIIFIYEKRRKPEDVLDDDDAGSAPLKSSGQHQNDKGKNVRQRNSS

[2] = target: T1, human BSG2 (basigin isoform 2) on the …; assay: cell-based or functional assay; remark: listed apart in the source
[3] = target: T2, cynomolgus monkey BSG2 on the cell surface (cynomolgus monkey); assay: flow cytometry (FACS) on BAF3 cells expressing cynomolgus BSG2
T2 construct: whole, on cells; also called BAF3-cyno BSG2; Cyno BSG2
Protocol: Stable cell lines overexpressing cell-surface BSG2 or human tumor cell lines were harvested from tissue culture flasks, washed three times and resuspended in phosphate buffered saline (PBS) containing 1% bovine serum albumin and 1 mM CaCl₂ (FACS buffer). 5×10⁵ cells were incubated with antibodies at various concentrations in FACS buffer for 60 minutes on ice. Cells were washed twice and the bound murine monoclonal antibody was detected with a goat Fab′2 anti-mouse IgM+IgG+IgA (H+L) R-phycoerythrin-conjugated antibody (Southern Biotechnology Associates, Inc., Birmingham, Ala., Catalog No. 1012-08) diluted 1:500. Following incubation on ice (4° C., 60 minutes), cells were washed three times and resuspended in FACS buffer. Fluorescence was measured using a Becton Dickinson FACSCalibur-HTS (Becton Dickinson, San Jose, Calif., US). Data were analyzed using Graphpad Prism software and EC₅₀ values were reported as the concentration of antibody to achieve 50% of maximal BSG2 antibodies binding to BSG2 expressing cells.

[4] = target: T3, purified recombinant human BSG2 extracellular domain (human, UniProt P35613 22-325); assay: SPR (Biacore), mAb captured by anti-mouse Fc, BSG2 ECD injected, 25 C
T3 construct: also called Human BSG2 ECD
T3 sequence: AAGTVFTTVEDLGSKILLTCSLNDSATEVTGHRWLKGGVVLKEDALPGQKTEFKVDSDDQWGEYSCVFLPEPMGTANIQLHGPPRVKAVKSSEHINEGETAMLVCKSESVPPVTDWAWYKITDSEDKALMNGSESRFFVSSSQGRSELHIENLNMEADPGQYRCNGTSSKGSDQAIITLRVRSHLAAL
Protocol: (§1) Binding of BSG2 antibodies to a purified recombinant BSG2 extracellular domain (ECD) was determined by surface plasmon resonance-based measurements with a Biacore® instrument (either a Biacore 2000, Biacore 3000, or Biacore T100; GE Healthcare, Piscataway, N.J., US). The assay format for mAb affinity analysis was Fc-based capture via immobilized anti-Fc IgG. A standard amine coupling protocol was employed to immobilize Fc-specific IgG via primary amines to the carboxy-methyl (CM) dextran surface of CMS sensorchips. For the study of mouse anti-human BSG2 mAbs, anti-mouse Fc was used as the immobilized capture reagent. An automated protocol, available on the Biacore 2000, was used to immobilize 8000-10000RU of capture reagent in all 4 flowcells of the sensorchip. Binding was recorded as a function of time and kinetic rate constants were calculated. In this assay, on-rates as fast as 10⁷M⁻¹ s⁻¹ and off-rates as slow as 10⁻⁵ s⁻¹ can be measured.
(§2) Briefly, the CM-dextran surfaces were activated by freshly prepared 1:1 […] 3-(N,N-dimethylamino)propyl-N-ethylcarbodiimide (EDC). Then the anti-Fc IgG capture reagent (20 μg/ml in 10 mM sodium acetate, pH 4.5) was applied to the surface followed by deactivation of the surface and blocking of the residual reactive sites with 1M ethanolamine (pH 8.5). The running buffer employed was PBS-PB [1×PBS (Sigma P3813), pH 7.4, 0.005% P20 surfactant, 0.1 mg/ml BSA (Sigma-A7906)] and the assay temperature was 25° C. All reagents were diluted into running buffer to the specified concentrations. Each experimental cycle consisted of the following steps: (1) anti-BSG2 mAbs at 0.5 to 1 μg/ml were captured in flowcells 2, 3 or 4 to a level of 100-120RU. All measurements were referenced against flowcell 1 which had no captured anti-BSG2 mAb; (2) human BSG2 ECD was injected through all 4 flowcells, 240 μl at 80 μl/min. After the antigen injection, dissociation was monitored for 600 seconds at 80 μl/min; and (3) the anti-Fc capture surface was regenerated with 10 mM glycine, pH 1.5.
(§3) The BSG2 antibody binding affinities were determined by the BIACORE technology as described in Example 1.2. Table 10 represents the antibody binding kinetics against human and cynomolgus monkey BSG2 extracellular domain (ECD).

[5] = target: T4, cynomolgus monkey BSG2 extracellular domain (cynomolgus monkey); assay: as above
T4 construct: extracellular domain; also called Cynomolgus BSG2 ECD
Protocol: as §1, §2, §3

[6] = target: T1, human BSG2 (basigin isoform 2) on the …; assay: receptor binding assay, Eu-labeled antibody on cells expressing human BSG2
Protocol: Cell lines expressing BSG2 were harvested and washed once in assay buffer (PBS, 0.1% BSA, 0.02% Na Azide, 10 mM EDTA) and resuspended to 5×10⁶ cells per mL. Serial 1:2 dilutions of ⁺³Eu-labeled anti-BSG2 antibody stock in assay buffer were made for final concentrations ranging from 1.6×10⁻⁸-7.7×10⁻¹² M, and a 4 mg/mL solution of unlabeled anti-BSG2 antibody was also prepared. To 96 well round bottom plates, 25 μl of ⁺³Eu-labeled antibody dilutions were added to 25 μl buffer (total counts), or 25 μl of unlabeled antibody were added to 25 μl buffer (background counts). 50 μl of cells at 2.5×10⁵ cells per well were then added to all samples, mixed gently, and incubated on ice for 1 hour. Cell bound antibody was then separated from unbound antibody by transferring 20 μL of the reaction mixture to Acrowell 96 well filter plates (Pall PN 5020), centrifuged for 5 min (2200 rpm), washed 3× with 150 μL cold assay buffer, and centrifuged for 5 min. Signal was determined by incubating samples with 150 μL/well of enhancement buffer and read using Envision. The specific counts were determined by subtracting the background counts (cells+labeled antibody+excess cold antibody) from the corresponding total counts (cells+labeled antibody) for each antibody concentration. The labeled antibody concentration versus total counts was analyzed using Graphpad Prism 4 to calculate Kd and Bmax values.

- Mitochondrial membrane potential, fold decrease against Neg control IgG2a, MiaPaCa cells [2]: 2.5 fold decrease
- ph-Akt, fold decrease against Neg control IgG2a, MiaPaCa cells [2]: 2 fold decrease
- EC50 [3]: 0.35 nM
- Kd [4]: 1.5 nM
- koff [4]: 0.00059 s⁻¹
- kon [4]: 400000 M⁻¹ s⁻¹
- Kd [5]: 440 nM
- koff [5]: 0.149 s⁻¹
- kon [5]: 338000 M⁻¹ s⁻¹
- Kd [6]: 2 nM
B1: mouse anti-human BSG2 monoclonal antibody ML64-6A11-3A3 (antibody, mouse IgG2a, V domains shown)
VH: EVKLEESGGGLVQPGGSMKLSCVASGFTFSNFWMDWVRQSPEKGLEWIAGIRLKSYNYATHYAESVKGRFTISRDDSKSSVYLQMNNLRAEDTGIYYCTDWDGAYWGQGTLVTVSA
VL: DIVMTQSHKFMSTSVGDRVSITCKASQDVSTDVAWYQQKPGQSPKLLIYSASYRYTGVPDRFTGSGSGTDFTFTISSVQAEDLAVYYCQQHYSTPFTFGSGTKLEIK
notes: Hybridoma antibody, mouse IgG2a/kappa; also called 6A11-3A3 parental mouse antibody; Ab 3A3
- CDC assay (% killing at 10 µg/ml Ab), MiaPaCa-2 pancreatic cancer cells [1]: 84 % killing
